# Experimental data reported in patent publication US20230025732A1 (INNATE PHARMA, published 2023).
# T1: human CD39 expressed at the cell surface (human, UniProt P49961 1-510)
# T1 construct: On CHO transfectants, Hek-293T transfectants, Ramos and Mino tumor cells; also called huCD39; CHO-huCD39
# T1 sequence: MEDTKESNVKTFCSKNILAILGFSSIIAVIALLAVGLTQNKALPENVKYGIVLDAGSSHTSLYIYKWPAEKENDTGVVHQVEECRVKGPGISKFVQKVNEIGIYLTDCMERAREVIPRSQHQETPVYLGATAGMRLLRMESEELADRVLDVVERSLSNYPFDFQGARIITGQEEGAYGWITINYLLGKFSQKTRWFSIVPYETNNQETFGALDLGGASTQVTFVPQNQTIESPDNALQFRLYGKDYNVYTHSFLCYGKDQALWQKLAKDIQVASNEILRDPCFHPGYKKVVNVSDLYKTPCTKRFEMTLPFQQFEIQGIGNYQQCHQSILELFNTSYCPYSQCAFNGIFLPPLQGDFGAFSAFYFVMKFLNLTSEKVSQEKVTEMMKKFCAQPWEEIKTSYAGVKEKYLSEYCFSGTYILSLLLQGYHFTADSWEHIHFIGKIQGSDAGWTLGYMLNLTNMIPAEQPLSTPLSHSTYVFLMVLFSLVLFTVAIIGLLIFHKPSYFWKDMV
# Columns and labels:
# [1] = target: T1, human CD39 expressed at the cell surface; assay: flow cytometry, CHO cells expressing human CD39
# Method: Cells were incubated with various concentration of unlabeled anti-CD39 antibody from 30 μg/ml to 5×10⁻⁴ μg/ml, for 30 minutes at 4° C. After washes, cells were incubated with Goat anti-mouse H+L labeled secondary antibody for 30 min at 4° C.
# Antibodies mAb1-21 were assessed for binding to CD39 by flow cytometry as described in Example 7, using CHO cells expressing human CD39 and CHO cells expressing cynomolgus (Macaca fascicularis) CD39.
# [2] = target: T1, human CD39 expressed at the cell surface; assay: flow cytometry titration on Ramos lymphoma cells (Mean of Fluorescence), panel L1
binder,measurement,setting,value
"mAb2 H0L1 (antibody, human IgG1, V domains shown) VH: QVQLVQSGAEVKKPGASVKVSCKASGYTFTDYNMHWVRQAPGQRLEWMGYIVPLNGGSTFNQKFKGRVTITRDTSASTAYMELSSLRSEDTAVYYCARGGTRFAYWGQGTLVTVSS VL: DIVMTQSPDSLAVSLGERATINCRASESVDNFGVSFMYWFQQKPGQPPKLLIYGASNQGSGVPDRFSGSGSGTDFTLTISSLQAEDVAVYYCQQTKEVPYTFGGGTKVEIK",binding result,[1],binds
"mAb20 H4L1 (antibody, human IgG1, kappa, V domains shown, full heavy chain carries L234A/L235E/G237A/A330S/P331S) VH: QVQLVQSGAEVKKPGASVKVSCKASGYTFTDYNMHWVRQAPGQRLEWIGYIVPLNGGSTFNQKFKGRATITVDTSARTAYMELSSLRSEDTAVYYCARGGTRFAYWGQGTLVTVSS VL: DIVMTQSPDSLAVSLGERATINCRASESVDNFGVSFMYWFQQKPGQPPKLLIYGASNQGSGVPDRFSGSGSGTDFTLTISSLQAEDVAVYYCQQTKEVPYTFGGGTKVEIKR",EC50 (read off the curve),[2],~0.8 µg/mL
"mAb11 H2*L1 (antibody, human IgG1, V domains shown) VH: QVQLVQSGAEVKKPGASVKVSCKASGYTFTDYNMHWVRQAPGQRLEWMGYIVPLNGGSTFSQKFKGRATITVDTSASTAYMELSSLRSEDTAVYYCARGGTRFAYWGQGTLVTVSS VL: DIVMTQSPDSLAVSLGERATINCRASESVDNFGVSFMYWFQQKPGQPPKLLIYGASNQGSGVPDRFSGSGSGTDFTLTISSLQAEDVAVYYCQQTKEVPYTFGGGTKVEIK",binding result,[1],binds
"mAb17 H3*L1 (antibody, human IgG1, V domains shown) VH: QVQLVQSGAEVKKPGASVKVSCKASGYTFTDYNMHWVRQAPGQRLEWIGYIVPLNGGSTFSQKFQGRATITVDTSASTAYMELSSLRSEDTAVYYCARGGTRFAYWGQGTLVTVSS VL: DIVMTQSPDSLAVSLGERATINCRASESVDNFGVSFMYWFQQKPGQPPKLLIYGASNQGSGVPDRFSGSGSGTDFTLTISSLQAEDVAVYYCQQTKEVPYTFGGGTKVEIK",binding result,[1],binds
